Results: IntAct's records for PubMed 17339482

B1: Complement factor H (Homo sapiens), P08603 (parent)
chain: MRLLAKIICLMLWAICVAEDCNELPPRRNTEILTGSWSDQTYPEGTQAIYKCRPGYRSLGNVIMVCRKGEWVALNPLRKCQKRPCGHPGDTPFGTFTLTGGNVFEYGVKAVYTCNEGYQLLGEINYRECDTDGWTNDIPICEVVKCLPVTAPENGKIVSSAMEPDREYHFGQAVRFVCNSGYKIEGDEEMHCSDDGFWSKEKPKCVEISCKSPDVINGSPISQKIIYKENERFQYKCNMGYEYSERGDAVCTESGWRPLPSCEEKSCDNPYIPNGDYSPLRIKHRTGDEITYQCRNGFYPATRGNTAKCTSTGWIPAPRCTLKPCDYPDIKHGGLYHENMRRPYFPVAVGKYYSYYCDEHFETPSGSYWDHIHCTQDGWSPAVPCLRKCYFPYLENGYNQNYGRKFVQGKSIDVACHPGYALPKAQTTVTCMENGWSPTPRCIRVKTCSKSSIDIENGFISESQYTYALKEKAKYQCKLGYVTADGETSGSITCGKDGWSAQPTCIKSCDIPVFMNARTKNDFTWFKLNDTLDYECHDGYESNTGSTTGSIVCGYNGWSDLPICYERECELPKIDVHLVPDRKKDQYKVGEVLKFSCKPGFTIVGPNSVQCYHFGLSPDLPICKEQVQSCGPPPELLNGNVKEKTKEEYGHSEVVEYYCNPRFLMKGPNKIQCVDGEWTTLPVCIVEESTCGDIPELEHGWAQLSSPPYYYGDSVEFNCSESFTMIGHRSITCIHGVWTQLPQCVAIDKLKKCKSSNLIILEEHLKNKKEFDHNSNIRYRCRGKEGWIHTVCINGRWDPEVNCSMAQIQLCPPPPQIPNSHNMTTTLNYRDGEKVSVLCQENYLIQEGEEITCKDGRWQSIPLCVEKIPCSQPPQIEHGTINSSRSSQESYAHGTKLSYTCEGGFRISEENETTCYMGKWSSPPQCEGLPCKSPPEISHGVVAHMSDSYQYGEEVTYKCFEGFGIDGPAIAKCLGEKWSHPPSCIKTDCLSLPSFENAIPMGEKKDVYKAGEQVTYTCATYYKMDGASNVTCINSRWTGRPTCRDTSCVNPPTVQNAYIVSRQMSKYPSGERVRYQCRSPYEMFGDEEVMCLNGNWTEPPQCKDSTGKCGPPPPIDNGDITSFPLSVYAPASSVEYQCQNLYQLEGNKRITCRNGQWSEPPKCLHPCVISREIMENYNIALRWTAKQKLYSRTGESVEFVCKRGYRLSSRSHTLRTTCWDGKLEYPTCAKR
partner: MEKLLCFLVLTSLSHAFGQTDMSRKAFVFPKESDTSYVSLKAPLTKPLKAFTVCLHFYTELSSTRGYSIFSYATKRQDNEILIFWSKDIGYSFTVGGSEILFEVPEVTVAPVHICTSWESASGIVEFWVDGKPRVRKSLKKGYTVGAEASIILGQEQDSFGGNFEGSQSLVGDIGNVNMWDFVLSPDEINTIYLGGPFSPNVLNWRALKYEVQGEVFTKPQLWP

Variants of: B1
Details: with crp_human CRP

Row | Variant | effect of a mutation on the interaction
1 | Y402H | decreasing interaction strength
